Measurements from the supplement of paper PMC6757056.
± gives the standard deviation of the averaged measurements.

B1: library; a variant is named by its letters at N, in order (parent)
chain: GCUGUCACCGAGAAACUGUGAAGUAUAUCUUAAACCUGGGCACUUAAAAGAUAUAUGGAGUUAGUAGUGCAACCUGCUCGGUCUGAUGAGUCCNNNNNNGGACGAAACAGC

Experiments:
cyclic di-GMP [1] = variants of: B1; test: normalized RNA/DNA level without ligand (relative to sTRSVctl = 100) (log10 (% of sTRSVctl)); HEK293T; ligand: cyclic di-GMP (c-di-GMP-II aptamer); higher = less ribozyme self-cleavage, higher mRNA level; details: reporter: mCherry (pCS4076), ligand present: no
Procedure, shortened: (§1)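 For each 6-well well, 4 µg of library plasmid encoding mCherry-linked ribozyme switches, or eGFP-linked ones in some ligand experiments, was transfected into HEK293T. Any ligand was added 1 h before transfection, and RNA was extracted with EDTA 72 h after it, then reverse-transcribed, amplified, barcoded and sequenced. RNA level was obtained by dividing RNA reads by DNA reads, normalizing to a spiked-in non-cleaving sequence or to the top sequences, then scaling and log-transforming. The top set was 25 sequences, scaling was ×100 with log10, and ≥100 DNA reads were required.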

cyclic di-GMP [2] = variants of: B1; test: normalized RNA/DNA level with ligand (relative to sTRSVctl = 100) (log10 (% of sTRSVctl)); HEK293T; ligand: cyclic di-GMP (c-di-GMP-II aptamer); ligand concentration (+) RNA-Seq: 1 mM; higher = less ribozyme self-cleavage, higher mRNA level; details: reporter: mCherry (pCS4076), ligand present: yes
Procedure, shortened: as §1

Row | Variant | normalized RNA/DNA level without ligand (log10) (cyclic di-GMP [1]) | normalized RNA/DNA level with ligand (log10) (cyclic di-GMP [2])
1 | ACCGUA | 1.51 ± 0.034 | 1.68 ± 0.13
2 | ACCGUU | 1.52 ± 0.028 | 1.72 ± 0.1
3 | ACCGUG | 1.57 ± 0.096 | 1.77 ± 0.097
4 | ACCGUC | 1.73 ± 0.028 | 1.83 ± 0.11
5 | CCCUAU | 1.62 ± 0.048 | 1.8 ± 0.069
6 | CCCUAC | 1.71 ± 0.026 | 1.82 ± 0.1
7 | CCCUAA | 1.45 ± 0.081 | 1.64 ± 0.13
8 | CCCAGC | 1.72 ± 0.03 | 1.84 ± 0.16
9 | CCCAGU | 1.736 ± 0.015 | 1.86 ± 0.068
10 | CCCAGG | 1.77 ± 0.025 | 1.89 ± 0.077
11 | GCCCGC | 1.76 ± 0.04 | 1.86 ± 0.15
12 | GCCCGU | 1.73 ± 0.048 | 1.84 ± 0.14
13 | GCCCGA | 1.62 ± 0.052 | 1.79 ± 0.079
14 | GCCAAC | 1.51 ± 0.086 | 1.66 ± 0.056
15 | GCCAAA | 1.49 ± 0.1 | 1.68 ± 0.08
16 | UCCGCG | 1.774 ± 0.0088 | 1.89 ± 0.083
17 | UCCGCC | 1.75 ± 0.076 | 1.89 ± 0.11
18 | UCCGCU | 1.75 ± 0.052 | 1.88 ± 0.08
19 | UCCGCA | 1.72 ± 0.021 | 1.86 ± 0.14
20 | CCCUGU | 1.75 ± 0.043 | 1.87 ± 0.13
21 | CCCUGG | 1.74 ± 0.022 | 1.85 ± 0.03
22 | CCCUGA | 1.61 ± 0.068 | 1.82 ± 0.068
23 | UCCGUC | 1.75 ± 0.018 | 1.9 ± 0.14

Row | Variant | normalized RNA/DNA level without ligand (log10) (cyclic di-GMP [1]) | normalized RNA/DNA level with ligand (log10) (cyclic di-GMP [2])
24 | UCCGUG | 1.73 ± 0.033 | 1.85 ± 0.11
25 | UCCGUA | 1.51 ± 0.1 | 1.7 ± 0.084
26 | UCCGUU | 1.6717 ± 0.00065 | 1.85 ± 0.12
27 | UCGAAG | 1.52 ± 0.097 | 1.74 ± 0.058
28 | UCGAAC | 1.62 ± 0.026 | 1.76 ± 0.1
29 | UCGAAU | 1.45 ± 0.1 | 1.69 ± 0.059
30 | ACCUAG | 1.64 ± 0.053 | 1.78 ± 0.086
31 | ACCUAC | 1.7 ± 0.02 | 1.85 ± 0.075
32 | UCCUGC | 1.79 ± 0.062 | 1.91 ± 0.053
33 | UCCUGA | 1.69 ± 0.048 | 1.85 ± 0.1
34 | UCCUGG | 1.82 ± 0.057 | 1.91 ± 0.14
35 | UCCUGU | 1.72 ± 0.018 | 1.88 ± 0.059
36 | ACCAGC | 1.63 ± 0.064 | 1.77 ± 0.079
37 | ACCAGG | 1.71 ± 0.037 | 1.77 ± 0.088
38 | ACCAGA | 1.39 ± 0.11 | 1.6 ± 0.13
39 | CCCAUC | 1.728 ± 0.0037 | 1.84 ± 0.14
40 | CCCAUG | 1.53 ± 0.08 | 1.73 ± 0.13
41 | ACGAAU | 1.31 ± 0.061 | 1.53 ± 0.079
42 | ACGAAC | 1.53 ± 0.11 | 1.72 ± 0.067
43 | ACGAGG | 1.5 ± 0.06 | 1.69 ± 0.1
44 | ACGAGC | 1.62 ± 0.049 | 1.76 ± 0.084
45 | ACCCAG | 1.777 ± 0.0092 | 1.86 ± 0.06
46 | ACCCAU | 1.61 ± 0.018 | 1.79 ± 0.12

Row | Variant | normalized RNA/DNA level without ligand (log10) (cyclic di-GMP [1]) | normalized RNA/DNA level with ligand (log10) (cyclic di-GMP [2])
47 | ACCCAA | 1.56 ± 0.03 | 1.74 ± 0.15
48 | CCGAAC | 1.56 ± 0.058 | 1.72 ± 0.12
49 | CCGAAU | 1.48 ± 0.13 | 1.68 ± 0.11
50 | UCCUAC | 1.75 ± 0.04 | 1.87 ± 0.14
51 | UCCUAU | 1.63 ± 0.085 | 1.8 ± 0.097
52 | UCCUAG | 1.71 ± 0.018 | 1.82 ± 0.087
53 | UCCUAA | 1.63 ± 0.077 | 1.79 ± 0.067
54 | ACCUUC | 1.74 ± 0.042 | 1.83 ± 0.11
55 | ACCUUU | 1.63 ± 0.02 | 1.82 ± 0.081
56 | ACCUUA | 1.67 ± 0.015 | 1.79 ± 0.14
57 | ACCUUG | 1.7 ± 0.065 | 1.81 ± 0.063
58 | GCCCCC | 1.78 ± 0.026 | 1.88 ± 0.084
59 | GCCCCG | 1.799 ± 0.012 | 1.84 ± 0.086
60 | CCGAUA | 1.31 ± 0.13 | 1.54 ± 0.075
61 | CCCUUU | 1.61 ± 0.053 | 1.83 ± 0.096
62 | CCCUUC | 1.729 ± 0.0068 | 1.86 ± 0.082
63 | CCCUUA | 1.47 ± 0.04 | 1.7 ± 0.15
64 | CCCUUG | 1.643 ± 0.0095 | 1.81 ± 0.13
65 | GCCGCA | 1.74 ± 0.0018 | 1.84 ± 0.14
66 | GCCGCG | 1.79 ± 0.03 | 1.92 ± 0.07
67 | GCCGCC | 1.72 ± 0.033 | 1.82 ± 0.075
68 | GCCUCA | 1.737 ± 0.0028 | 1.87 ± 0.068
69 | GCCUCG | 1.761 ± 0.0043 | 1.892 ± 0.0091

Row | Variant | normalized RNA/DNA level without ligand (log10) (cyclic di-GMP [1]) | normalized RNA/DNA level with ligand (log10) (cyclic di-GMP [2])
70 | GCCUCC | 1.71 ± 0.02 | 1.84 ± 0.091
71 | GCCUCU | 1.721 ± 0.017 | 1.87 ± 0.04
72 | ACCAAU | 1.48 ± 0.049 | 1.7 ± 0.11
73 | CCGAGU | 1.63 ± 0.025 | 1.8 ± 0.13
74 | CCGAGG | 1.624 ± 0.0052 | 1.8 ± 0.071
75 | GCCAUC | 1.564 ± 0.0079 | 1.77 ± 0.074
76 | GCCAUG | 1.59 ± 0.051 | 1.79 ± 0.066
77 | ACCCCA | 1.744 ± 0.012 | 1.86 ± 0.1
78 | ACCCCU | 1.74 ± 0.036 | 1.86 ± 0.076
79 | ACCCCC | 1.82 ± 0.064 | 1.91 ± 0.14
80 | UCCUCU | 1.74 ± 0.06 | 1.87 ± 0.13
81 | CCGACG | 1.6 ± 0.089 | 1.79 ± 0.052
82 | CCGACU | 1.59 ± 0.082 | 1.74 ± 0.077
83 | UCCCCC | 1.83 ± 0.088 | 1.92 ± 0.13
84 | UCCCCG | 1.82 ± 0.03 | 1.96 ± 0.11
85 | UCCCCA | 1.79 ± 0.034 | 1.91 ± 0.2
86 | UCCCCU | 1.78 ± 0.033 | 1.9 ± 0.13
87 | CCCCCG | 1.79 ± 0.027 | 1.84 ± 0.071
88 | CCCCCC | 1.82 ± 0.043 | 1.93 ± 0.12
89 | CCCCCU | 1.704 ± 0.0062 | 1.86 ± 0.13
90 | CCCGUG | 1.62 ± 0.024 | 1.8 ± 0.09
91 | CCCGUU | 1.74 ± 0.032 | 1.87 ± 0.089
92 | ACCGGU | 1.531 ± 0.003 | 1.76 ± 0.08

Row | Variant | normalized RNA/DNA level without ligand (log10) (cyclic di-GMP [1]) | normalized RNA/DNA level with ligand (log10) (cyclic di-GMP [2])
93 | ACCGGC | 1.784 ± 0.0037 | 1.92 ± 0.12
94 | ACCGGG | 1.84 ± 0.027 | 1.91 ± 0.12
95 | ACCGGA | 1.51 ± 0.13 | 1.71 ± 0.056
96 | CCCAAC | 1.61 ± 0.037 | 1.82 ± 0.086
97 | CCCAAU | 1.55 ± 0.066 | 1.77 ± 0.11
98 | CCCAAG | 1.587 ± 0.0023 | 1.74 ± 0.17
99 | GCCAGA | 1.48 ± 0.05 | 1.68 ± 0.1
100 | GCCAGU | 1.604 ± 0.016 | 1.82 ± 0.098
101 | GCCAGC | 1.67 ± 0.064 | 1.83 ± 0.18
102 | GCCACU | 1.684 ± 0.016 | 1.86 ± 0.12
103 | GCCACA | 1.654 ± 0.016 | 1.81 ± 0.089
104 | GCCACG | 1.68 ± 0.051 | 1.81 ± 0.12
105 | ACCGAG | 1.57 ± 0.031 | 1.74 ± 0.11
106 | ACCGAC | 1.61 ± 0.06 | 1.77 ± 0.11
107 | ACCGAU | 1.48 ± 0.072 | 1.67 ± 0.091
108 | UCCAAC | 1.62 ± 0.037 | 1.78 ± 0.11
109 | UCCAAU | 1.645 ± 0.015 | 1.82 ± 0.12
110 | UCCAAG | 1.6 ± 0.033 | 1.78 ± 0.097
111 | UCCCGG | 1.855 ± 0.016 | 1.93 ± 0.069
112 | UCCCGA | 1.77 ± 0.059 | 1.87 ± 0.1
113 | UCCCGC | 1.801 ± 0.018 | 1.91 ± 0.1
114 | ACAUUU | 1.42 ± 0.05 | 1.67 ± 0.11
115 | GCCUGC | 1.78 ± 0.032 | 1.86 ± 0.097
